Measurements taken from the supplement of paper PMC7877785.
± gives the uncertainty stated by the source.

Assay: self-splicing fitness, log relative to wild type (ln ratio); higher = more splicing; Tetrahymena group I intron in knt gene, E. coli kanamycin selection, DiMSum; sequences stand for … in CUCUCU…GGAGGGAAAAGUUAUCAGGCAUGCACCUGGUAGCUAGUCUUUAAACCAAUAGAUUGCAUCGGUUUAAAAGGCAAGACCGUCAAAUUGCGGGAAAGGGGUCAACAGCCGUUCAGUACCAAGUCUCAGGGGAAACUUUGAGAUGGCCUUGCAAAGGGUAUGGUAAUAAGCUGACGGACAUGGUCCUAACCACGCAGCCAAGUCCUAAGUCAACAGAUCUUCUGUUGAUAUGGAUGCAGUUCACAGACUAAAUGUCGGUCGGGGAAGAUGUAUUCUUCUCAUAAGAUAUAGUCGGACCUCUCCUUAAUGGGAGCUAGCGGAUGAAGUGAUGCAACACUGGAGCCGCUGGGAACUAAUUUGUAUGCGAAAGUAUAUUGAUUAGUUUUGGAGUACUCGUGGUCG
Method in brief: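 Six replicate transformations of E. coli BL21(DE3) with a pET-22b(+) library were grown overnight at 37°C or 30°C. The library randomised all eight P1ex-region intron nucleotides, the intron lying in the knt kanamycin-resistance gene, and plates were LB agar with or without 25 μg/mL kanamycin plus 100 μg/mL carbenicillin, 50 μM IPTG and 0.2% rhamnose. Pooled colonies were amplicon-sequenced on an Illumina HiSeq 2500, and fitness is the DiMSum error-weighted combination of wild-type-normalised replicate fold changes, kanamycin versus none.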

| Sequence | self-splicing fitness (ln) (30 °C) | self-splicing fitness (ln) (37 °C) |
| --- | --- | --- |
| CGAUAGCAAUAUUACGUCUA | -1.89 ± 0.13 | -0.377 ± 0.11 |
| CGAUAGCAAUAUUACGUUCG | -3.06 ± 0.24 | -1.9 ± 0.33 |
| CGCAAGCAAUAUUACGAGAU | -3.04 ± 0.38 | -1.59 ± 0.26 |
| CGCAAGCAAUAUUACGAUGG | -0.351 ± 0.081 | -0.239 ± 0.095 |
| CGCAAGCAAUAUUACGAUGU | -1.6 ± 0.075 | -0.734 ± 0.1 |
| CGCAAGCAAUAUUACGCAAA | -1.92 ± 0.22 | -2.99 ± 0.37 |
| CGCAAGCAAUAUUACGCACA | -0.694 ± 0.096 | -0.825 ± 0.1 |
| CGCAAGCAAUAUUACGCCUU | -2.63 ± 0.17 | -2.62 ± 0.26 |
| CGCAAGCAAUAUUACGCGAG | -3.98 ± 0.31 | -2.43 ± 0.3 |
| CGCAAGCAAUAUUACGCGCA | -1.1 ± 0.086 | -1.46 ± 0.13 |
| CGCAAGCAAUAUUACGCGGG | -4.14 ± 0.42 | -2.31 ± 0.23 |
| CGCAAGCAAUAUUACGCUAA | -2.42 ± 0.17 | -3.24 ± 0.33 |
| CGCAAGCAAUAUUACGCUGA | -3.11 ± 0.26 | -2.01 ± 0.22 |
| CGCAAGCAAUAUUACGGGUC | -3.87 ± 0.23 | -3.77 ± 0.28 |
| CGCAAGCAAUAUUACGGGUG | -1.59 ± 0.062 | -0.366 ± 0.08 |
| CGCAAGCAAUAUUACGGUAC | -4.99 ± 0.45 | -3.6 ± 0.16 |
| CGCAAGCAAUAUUACGGUCC | -1.07 ± 0.076 | -0.628 ± 0.12 |
| CGCAAGCAAUAUUACGGUGA | -0.78 ± 0.084 | -0.469 ± 0.091 |
| CGCAAGCAAUAUUACGUACU | -1.64 ± 0.075 | -0.119 ± 0.096 |

| Sequence | self-splicing fitness (ln) (30 °C) | self-splicing fitness (ln) (37 °C) |
| --- | --- | --- |
| CGCAAGCAAUAUUACGUAUA | -3.79 ± 0.44 | -3.01 ± 0.2 |
| CGCAAGCAAUAUUACGUCUG | -1.13 ± 0.06 | -0.286 ± 0.075 |
| CGCAAGCAAUAUUACGUUAA | -2.49 ± 0.18 | -2.62 ± 0.21 |
| CGCAAGCAAUAUUACGUUAC | -4 ± 0.22 | -3.23 ± 0.27 |
| CGCAAGCAAUAUUACGUUGC | -3.41 ± 0.17 | -3.62 ± 0.29 |
| CGCAAGCAAUAUUACGUUUA | -2.8 ± 0.12 | -1.98 ± 0.095 |
| CGCCAGCAAUAUUACGAAGC | – | -1.71 ± 0.19 |
| CGCCAGCAAUAUUACGACGU | -1.71 ± 0.076 | -1.5 ± 0.094 |
| CGCCAGCAAUAUUACGCAGA | -3.57 ± 0.47 | -2.53 ± 0.24 |
| CGCCAGCAAUAUUACGCAUG | -0.241 ± 0.077 | -1.06 ± 0.1 |
| CGCCAGCAAUAUUACGCUCU | -1.6 ± 0.081 | -1.06 ± 0.097 |
| CGCCAGCAAUAUUACGGAAG | -1.44 ± 0.064 | -0.526 ± 0.077 |
| CGCCAGCAAUAUUACGGCGA | -3.29 ± 0.23 | -1.84 ± 0.18 |
| CGCCAGCAAUAUUACGGUGC | -3.5 ± 0.17 | -3.07 ± 0.3 |
| CGCCAGCAAUAUUACGGUUA | -0.708 ± 0.055 | 0.0109 ± 0.058 |
| CGCCAGCAAUAUUACGGUUC | -2.29 ± 0.11 | -1.54 ± 0.11 |
| CGCCAGCAAUAUUACGUAAU | -2.67 ± 0.12 | -1.71 ± 0.15 |
| CGCCAGCAAUAUUACGUAUU | -3.2 ± 0.093 | -2.71 ± 0.15 |
| CGCCAGCAAUAUUACGUCGC | -3.23 ± 0.16 | -2.11 ± 0.2 |
